Legend:
[1] = molecular target: aged human serum albumin (human) (UniProt P02768); test: SEC
[2] = molecular target: aged human serum albumin aggregates (human) (UniProt P02768); test: SEC + ELISA
[3] = molecular target: aged human serum albumin (human) (UniProt P02768); test: SEC + ELISA

Substance | stoichiometry N (HSA molecules) [1] | fold less Aß bound than by fHSA monomers [2] | fold less Aß bound than by fHSA monomers [3]
aged human serum albumin (from UniProt P02768 25-609) (natural protein) | 8 | – | –
amyloid beta peptide 1-42 | – | 12 times less | 4 times less

Reference: article doi:10.1101/2022.05.03.490418
